Results reported in patent publication US20150266963A1 (ARGEN X B V, published 2015).
Where a chain is given by its changes, count along the chain named. Read-outs that look alike come from different tables or passages of the source.

B1: 57B6 chimeric llama-human mAb (antibody, human IgG1, V domains shown)
VH: QLQLVESGGGLVQPGGSLRLSCAASGFSFSHYAMSWVRQAPGKGLEWVSGDNTYDGGTRYQDSVKGRFTISRDNGKNTLYLQMNSLKPEDTAVYYCAKDTGRGIMGEYGMDYWGKGTLVTVSS
VL: QTVVTQEPSLSVSPGGTVTLTCGLKSGSVTSSNYPAWYQQTPGQAPRLLIYNTNSRHSGVPSRFSGSISGNKAALTITGAQPEDEADYYCALYMGSGSANAMFGGGTHLTVLG
B2: 9D1 chimeric llama-human mAb (antibody, human IgG1, V domains shown)
VH: EVQLVESGGGLVQPGGSLRLSCAASGFTFSVYYMNWVRQAPGKGLEWVSDINNEGGTTYYADSVKGRFTISRDNAKNTLTLQMNSLKPEDTALYYCVRDAGYSNHVPIFDSWGQGTQVIVAS
VL: QAVVTQEPSLSVSPGGTVTLTCGLSSGSVTSSHYPGWYQQTPGQAPRLLIFNTNSRHSGVPSRFSGSISGNKAALTITGAQPEDEADYYCALLNIDDGSTMFGGGTHLTVLG
notes: also called mAb 9D1
B3: 27B3 Fab (Fab, V domains shown)
VH: B2 VH
VL: QAVVTQEPSLTVSPGGTVTLTCGLKSGSVTSTNFPTWYQQTPGQAPRLLIYNTNTRHSGVPSRFSGSISENKAALTITGAQPEDEAEYFCALFISNPSVEFGGGTQLTVLS
notes: Llama-derived Fab; also called Fab 27B3
B4: ARGX-110 Fab (Fab, V domains shown)
VH: B2 VH with A75S, T78S, T80Y, K87R, P88A, L93V, V97A, Q117L, I119T, A121S
VL: B3 VL with T32D, S62D, S69L, E70G, P82A, E83D, S111G
B5: 9G2 chimeric llama-human mAb (antibody, human IgG1, V domains shown)
VH: QVQLVESGGGLMQPGGSLRLSCAASGFTFSSSAMSWVRQAPGKGLEWVSSIYSDSSYTYYADSVKSRFTISTDNAKNTLYLQMNSLKPDDTAVYYCAGSSDYEGSFASWGQGTQVTVSS
VL: QSVVTQPPSLSASPGSSVRLTCTLSSGNSVGNYDISWYQQKAGSPPRYLLYYYSDSVKHQGSGVPSRFSGSSDASANAGLLLISGLQPEDEADYYCSAYKSGSHVFGGGTKLTVLG
B6: 59D10 chimeric llama-human mAb (antibody, human IgG1, V domains shown)
VH: EVQLVESGGGLVQPGGSLRLSCAASELSFSISEMTWVRQAPGKGLEWVSGISGVTGGSSTSYADSVKGRFTISRDNDKNTLYLQMNSLIPEDTAVYYCATTSGTYYFIPEYEYWGQGTQVTVSS
VL: QSVLTQPPSVSGSPGKTVTISCAGTSSDVGYGYYVSWYQQFPGMAPKLLIYDVNKRASGIADRFSGSKAGNTASLTISGLQSEDEADYYCASYRSSANAVFGGGTHLTVLG

Tests used:
[1] = target: T1, human CD70 expressed on the surface of cells (human, UniProt P32970 1-193); test: cell-based or functional assay
T1 sequence (looked up): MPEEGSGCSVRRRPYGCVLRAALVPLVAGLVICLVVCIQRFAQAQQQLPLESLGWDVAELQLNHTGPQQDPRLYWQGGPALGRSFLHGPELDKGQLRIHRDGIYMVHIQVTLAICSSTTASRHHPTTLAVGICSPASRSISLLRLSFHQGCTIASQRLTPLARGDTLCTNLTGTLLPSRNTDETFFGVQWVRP

[2] = target: T1, human CD70 expressed on the surface of …; test: flow cytometry on MHH-PREB-1 cells; anti-human IgG-FITC
Description: In a further experiment, NHL-derived MHH-PREB-1 cells (1W cells) were incubated with a concentration gradient of chimeric llama-human CD70 inhibiting mAbs (20 μg/ml-0.25 ng/ml) and binding of the mAbs to the cells was detected using anti-human IgG-FITC antibody.

[3] = target: T2, rhesus recombinant CD70 (FLAG-TNC-rhesus CD70) (rhesus); test: inhibition ELISA; FLAG-TNC-rhesus CD70; competitor CD27-Fc
T2 construct: also called rhesus Flag-TNC-CD70
Source text: In this assay, Flag-TNC-CD70 is captured by an anti-Flag mAb and binding of CD27-Fc is detected via a biotinylated anti-CD27 mAb and strep-HRP in the absence or presence of CD70 Fabs (FIGS. 2 and 3) or CD70 mAbs (FIG. 4). In FIG. 2B it can be seen that 27B3, which has an identical VH as 9D1, but contains a somewhat different light chain, seems to block binding of CD27 to CD70 more efficiently, which was in line with the better off rate of this Fab as measured on Biacore (data not shown). Table 3 indicates the blocking potency (expressed as IC50) for the various llama-human chimeric mAbs tested in the CD70 inhibition ELISA. […] FIG. 3 is a composite of an experiment testing llama CD70 Fabs for blocking activity (in the inhibition ELISA, see white bars) and for CD70 binding (binding ELISA, black bars). For the binding ELISA, Flag-TNC-CD70 is captured by an anti-Flag mAb and binding of the Fabs is detected using an anti-myc-HRP mAb, which recognizes the MYC tag fused to the C-terminus of the Fd fragment. For comparison purposes, known monoclonal antibodies to CD70 (SGN70 described in US 2010/0129362 A1, clone 1F6; and MDX69A7 described in WO2008/074004 FIGS. 5A and 5B) were tested in parallel. […] Of interest is clone 59D10, which as Fab has no blocking activity, but when converted into a chimeric IgG was antagonistic (see Table 3). […]

[4] = target: T3, recombinant human CD70 (Flag-TNC-CD70) (human, UniProt P32970 39-193); test: inhibition ELISA; Flag-TNC-CD70 captured by anti-Flag mAb; competitor CD27-Fc
T3 construct: extracellular domain; Captured by anti-Flag mAb in ELISA; as 'recombinant human CD70' immobilised on Biacore CM5 chips; TNC is for trimerisation; also called recombinant CD70; human recombinant CD70; not shown: Flag tag and TNC trimerisation domain
T3 sequence (looked up): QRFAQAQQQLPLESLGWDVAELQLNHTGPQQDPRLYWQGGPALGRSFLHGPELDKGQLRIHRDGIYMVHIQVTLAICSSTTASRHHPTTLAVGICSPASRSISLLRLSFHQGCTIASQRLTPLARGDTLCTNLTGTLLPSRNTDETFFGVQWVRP
Outline: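 Flag-TNC-CD70 captured by anti-Flag mAb, then incubated with CD27-Fc with or without titrated Fabs (periplasmic extracts) or chimeric mAbs. Bound CD27-Fc detected via biotinylated anti-CD27 mAb and strep-HRP, and blocking potency expressed as IC50.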

[5] = target: T1, human CD70 expressed on the surface of …; test: flow cytometry on 786-O cells, anti-human Fc-FITC
Description: Fluorescence of 10,000 cells/condition was measured using a flow cytometer and the median fluorescence was plotted.

[6] = target: T3, recombinant human CD70 (Flag-TNC-CD70); test: inhibition ELISA; Flag-TNC-CD70 captured by anti-Flag mAb; competitor CD27-Fc; remark: listed apart in the source
Description: From selected phage transfected into TG1, individual colonies were picked randomly for growth in 96 well plates. After IPTG induction according to standard protocols periplasmic fractions (penis) containing Fabs were prepared. […] In this assay, Flag-TNC-CD70 is captured by an anti-Flag mAb and binding of CD27-Fc is detected via a biotinylated anti-CD27 mAb and strep-HRP in the absence or presence of CD70 Fabs (FIGS. 2 and 3) or CD70 mAbs (FIG. 4). In FIG. 2B it can be seen that 27B3, which has an identical VH as 9D1, but contains a somewhat different light chain, seems to block binding of CD27 to CD70 more efficiently, which was in line with the better off rate of this Fab as measured on Biacore (data not shown). Table 3 indicates the blocking potency (expressed as IC50) for the various llama-human chimeric mAbs tested in the CD70 inhibition ELISA. […] FIG. 3 is a composite of an experiment testing llama CD70 Fabs for blocking activity (in the inhibition ELISA, see white bars) and for CD70 binding (binding ELISA, black bars). For the binding ELISA, Flag-TNC-CD70 is captured by an anti-Flag mAb and binding of the Fabs is detected using an anti-myc-HRP mAb, which recognizes the MYC tag fused to the C-terminus of the Fd fragment. For comparison purposes, known monoclonal antibodies to CD70 (SGN70 described in US 2010/0129362 A1, clone 1F6; and MDX69A7 described in WO2008/074004 FIGS. 5A and 5B) were tested in parallel. […] Of interest is clone 59D10, which as Fab has no blocking activity, but when converted into a chimeric IgG was antagonistic (see Table 3). Amino acid sequences of the VH and VL domains of binding and blocking llama-derived Fab clones are shown elsewhere herein (Tables 6-9).

[7] = target: T3, recombinant human CD70 (Flag-TNC-CD70); test: Biacore; recombinant human CD70 on CM5 chip; Fab injected
Description: (§1) Off-rates of the purified llama-derived anti-CD70 blocking Fabs were determined using the Biacore. Recombinant human CD70 was immobilized on a CM5 Biacore chip. The immobilization was performed in accordance with a method provided by Biacore and by using the NHS/EDC kit (Biacore AB): after activation of the chip, a solution of 50 μg/ml of recombinant CD70 in 10 mM acetate buffer with pH of 5 was prepared and 1 μl of this solution (50ng) was injected resulting in a surface density of approximately 1000 RU.
Fabs for the CD70 mAbs ARGX-110, MDX2H5 and SGN70 were prepared by […] digestion (SGN70 and MDX69A7 are described elsewhere herein, MDX2H5, also referred to as MDX1411, is described in WO2008/074004 FIGS. 1A and 1B). Fabs, at a concentration of approximately 100-400 μg/ml, were diluted 6-fold in hepes-buffered saline (0.1M Hepes, 1.5M NaCl, 30 mM EDTA, 0.5% v/v surfactant P20). They were injected (30 μl) and passed through the flow cells at a flow rate of 30 μl/min. After binding of the Fab to CD70, the off-rate was monitored for a period of 10 minutes. After the dissociation, the flow cell surfaces were regenerated by injecting 5 μl of 10 mM NaOH. Sometimes multiple injections of NaOH were needed to regenerate the surfaces depending on the affinity of the Fabs. Off-rate analysis was done by applying the BIAevaluation software. First, the sensogram of the blank runs were subtracted from those obtained with the coated flow cell. […] Moreover, the off-rate of CD27 for CD70 was determined as well.

[8] = target: T3, recombinant human CD70 (Flag-TNC-CD70); test: Biacore; CD70 coated CM5 chip; Fab in periplasmic fraction
Description: Phage eluted from rounds 3, 4 and 5 of selection were transfected into TG1 and plated clonally; individual clones were picked randomly for further analysis. Periplasmic fractions containing Fabs were prepared from IPTG induced small scale cultures the off rate of each Fab was determined using a CD70 coated CM5 chip in a Biacore binding assay. Clones with Fab having off rates similar to that of 27B3 were sequenced.

[9] = target: T3, recombinant human CD70 (Flag-TNC-CD70); test: Biacore; recombinant human CD70 on CM5 chip; Fab from papain digestion
Description: as §1, with “Recombinant” for “Off-rates of the purified llama-derived anti-CD70 blocking Fabs were determined using the Biacore. Recombinant”
Fabs were prepared for the CD70 mAbs ARGX-110, MDX1411 and SGN70 by papain digestion. These Fabs, at a concentration of approximately 100-400 μg/ml, were diluted 6-fold in HEPES-buffered saline (0.1M HEPES, 1.5M NaCl, 30 mM EDTA, 0.5% v/v surfactant P20). They were injected (30 μl) and passed through the flow cells at a flow rate of 30 μl/min. After binding of the Fab to CD70, the off-rate was monitored for a period of 10 minutes. After dissociation, the flow cell surfaces were regenerated by injecting 5 μl of 10 mM NaOH. Sometimes multiple injections of NaOH were needed to regenerate the surfaces depending on the affinity of the Fabs. Off-rate analysis was done by applying the BIAevaluation software. First, the sensogram of the blank runs were subtracted from those obtained with the coated flow cell.

[10] = target: T1, human CD70 expressed on the surface of …; test: cell-based or functional assay; remark: listed apart in the source

Row | Binder | IC50 (ng/ml), IL-8 secretion in Raji / HT1080-CD27 co-culture assay [1] | EC50 [2] | IC50 [4] | EC50 (read off the curve) [5] | IC50 [6] | also measured
1 | B1 | 5 ng/mL | 0.083 µg/mL | 0.154 µg/mL |  |  | IC50 [3]: 0.135 µg/mL
2 | B2 | 29 ng/mL |  | 0.109 µg/mL | ~0.03 µg/mL | 0.73 nM | 
3 | B3 |  |  |  |  | ~0.4 nM | koff [7]: 8e-05 s⁻¹; koff [8]: 0.00014 s⁻¹
4 | B4 |  |  |  |  |  | koff [9]: 0.00014 s⁻¹
5 | B5 | 3 ng/mL |  | 0.04 µg/mL | ~0.1 µg/mL |  | IC50, IL-8 secretion in Raji / HT1080-CD27 co-culture assay [10]: 0.02 nM
6 | B6 | 10 ng/mL | 0.074 µg/mL | 0.107 µg/mL |  |  | 
